# Assays:
# [1] = molecular target: mini-H3 cluster1 + 2 + 3 + 4 + 5 + 6 + 7-N405A (influenza A virus H3N2, UniProt Q38SQ8 18-566); experiment: FACS
# [2] = molecular target: mini-H3 cluster1 + 2 + 3 + 4 + 5 + 6 + 7-N405D (influenza A virus H3N2, UniProt Q38SQ8 18-566); experiment: FACS
binder,measurement,setting,value
"CR9114 (antibody, V domains shown) VH: QVQLVQSGAEVKKPGSSVKVSCKSSGGTSNNYAISWVRQAPGQGLDWMGGISPIFGSTAYAQKFQGRVTISADIFSNTAYMELNSLTSEDTAVYFCARHGNYYYYSGMDVWGQGTTVTVSS VL: SYVLTQPPAVSGTPGQRVTISCSGSDSNIGRRSVNWYQQFPGTAPKLLIYSNDQRPSVVPDRFSGSKSGTSASLAISGLQSEDEAEYYCAAWDDSLKGAVFGGGTQLTVL",binding result,[1],no binding (tested: 5 microgram/ml)
same,binding result,[2],no binding (tested: 5 microgram/ml)
